T1: human ACVR2B.Fc fusion protein (human, UniProt Q13705)
T1 sequence: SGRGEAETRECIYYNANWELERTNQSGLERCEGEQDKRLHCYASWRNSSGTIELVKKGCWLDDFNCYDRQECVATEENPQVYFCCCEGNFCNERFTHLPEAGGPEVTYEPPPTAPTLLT

B1: Activin A (wild type, mature dimer) (ligand)
chain: GLECDGKVNICCKKQFFVSFKDIGWNDWIIAPSGYHANYCEGECPSHIAGTSGSSLSFHSTVINHYRMRGHSPFANLKSCCVPTKLRPMSMLYYDDGQNIIKKDIQNMIVEECGCS
B2: Activin A.ΔD406 (ligand)
chain: GLECDGKVNICCKKQFFVSFKDIGWNDWIIAPSGYHANYCEGECPSHIAGTSGSSLSFHSTVINHYRMRGHSPFANLKSCCVPTKLRPMSMLYYDGQNIIKKDIQNMIVEECGCS

Biological target: T1, human ACVR2B.Fc fusion protein
Experiment: SPR

binding result	Binder
binds	B1
binds	B2

Reference: article doi:10.1101/733147 (bioRxiv, 2020)
